Key:
[1] = target: oncolytic virus M1 (OVM) virions; assay: virus binding to cells measured by qRT-PCR; details: 22Rv1 cells expressing TPRA1 variants; parent: est. 1.4; read off a plot
[2] = target: oncolytic virus M1 (OVM) virions (oncolytic virus M1 (Getah-like alphavirus)); assay: BLI; Octet RED96e; OVM loaded on aminopropylsilane (APS) biosensors in PBS; TPRA1-ECD-Fc (0.5-8 µM) or Fc (8 µM) in PBS with 0.02% Tween-20 and 1 mg/mL BSA; 1:1 binding model
[3] = GFP-positive 22Rv1 cells by flow cytometry, 48 h; details: glycan lost; control: wild-type TPRA1

Work on “HA-tagged full-length TPRA1 (from UniProt Q86W33-1) N11Q; N23Q” yielded an other: Relative change in binding [1] of 0.35.

“recombinant extracellular domain of TPRA1 fused to an Fc tag (TPRA1-ECD-Fc) (from UniProt Q86W33-1 1-47) (Fc fusion)” gave a Kd [2] of 91 nM.

In the case of “TPRA1 (transmembrane protein adipocyte-associated 1): N11/23Q”, the “other: susceptibility of cells to viral infection” value [3] is reported as “decreases”.
